According to the supplement of paper PMC7877785:
± gives the uncertainty stated by the source.

Experiment: self-splicing fitness, log relative to wild type (ln ratio); higher = more splicing; Tetrahymena group I intron in knt gene, E. coli kanamycin selection, DiMSum; sequences stand for … in CUCUCU…GGAGGGAAAAGUUAUCAGGCAUGCACCUGGUAGCUAGUCUUUAAACCAAUAGAUUGCAUCGGUUUAAAAGGCAAGACCGUCAAAUUGCGGGAAAGGGGUCAACAGCCGUUCAGUACCAAGUCUCAGGGGAAACUUUGAGAUGGCCUUGCAAAGGGUAUGGUAAUAAGCUGACGGACAUGGUCCUAACCACGCAGCCAAGUCCUAAGUCAACAGAUCUUCUGUUGAUAUGGAUGCAGUUCACAGACUAAAUGUCGGUCGGGGAAGAUGUAUUCUUCUCAUAAGAUAUAGUCGGACCUCUCCUUAAUGGGAGCUAGCGGAUGAAGUGAUGCAACACUGGAGCCGCUGGGAACUAAUUUGUAUGCGAAAGUAUAUUGAUUAGUUUUGGAGUACUCGUGGUCG
Outline: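 The eight P1ex-region nucleotides of an intron in the knt kanamycin-resistance gene on pET-22b(+) were all randomised and the library put into E. coli BL21(DE3). Six replicate transformations were grown overnight at 37°C or 30°C on LB agar with or without 25 μg/mL kanamycin, together with 100 μg/mL carbenicillin, 50 μM IPTG and 0.2% rhamnose. Colonies were pooled and amplicon-sequenced on an Illumina HiSeq 2500. Fitness from DiMSum is the error-weighted combination of wild-type-normalised replicate fold changes, kanamycin over none.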

Row | Sequence | self-splicing fitness (ln) (30 °C) | self-splicing fitness (ln) (37 °C)
1 | UGAAAGCAAUAUUACGUAUU | -3.21 ± 0.13 | -2.19 ± 0.12
2 | UGAAAGCAAUAUUACGUCAC | -3.83 ± 0.47 | -2.2 ± 0.27
3 | UGAAAGCAAUAUUACGUCGU | -4.87 ± 0.36 | -1.38 ± 0.12
4 | UGAAAGCAAUAUUACGUCUG | -0.102 ± 0.071 | 0.773 ± 0.09
5 | UGAAAGCAAUAUUACGUUUA | -0.985 ± 0.066 | -0.471 ± 0.074
6 | UGAAAGCAAUAUUACGUUUU | -3.67 ± 0.18 | -3.41 ± 0.35
7 | UGACAGCAAUAUUACGAAGU | -3.26 ± 0.2 | -2.91 ± 0.28
8 | UGACAGCAAUAUUACGACGG | -0.284 ± 0.11 | -0.251 ± 0.11
9 | UGACAGCAAUAUUACGAGCU | -2.11 ± 0.083 | -1.53 ± 0.083
10 | UGACAGCAAUAUUACGAUAG | -1.49 ± 0.07 | -0.347 ± 0.076
11 | UGACAGCAAUAUUACGAUGG | -1.5 ± 0.084 | 0.221 ± 0.12
12 | UGACAGCAAUAUUACGCAGC | -3.89 ± 0.33 | -2.43 ± 0.27
13 | UGACAGCAAUAUUACGCAGG | -3.54 ± 0.35 | -1.4 ± 0.2
14 | UGACAGCAAUAUUACGCCUU | -2.19 ± 0.12 | -1.15 ± 0.12
15 | UGACAGCAAUAUUACGCGGU | -3.56 ± 0.19 | -2.68 ± 0.19
16 | UGACAGCAAUAUUACGCUAU | -3.7 ± 0.2 | -1.09 ± 0.1
17 | UGACAGCAAUAUUACGCUGG | -2.21 ± 0.18 | -1.92 ± 0.33
18 | UGACAGCAAUAUUACGCUUA | -1.26 ± 0.088 | -0.0997 ± 0.094
19 | UGACAGCAAUAUUACGGCAC | -3.55 ± 0.19 | -2.23 ± 0.19
20 | UGACAGCAAUAUUACGGGAA | -1.33 ± 0.12 | -0.827 ± 0.081
21 | UGACAGCAAUAUUACGGGAU | -3.3 ± 0.17 | -2.94 ± 0.15
22 | UGACAGCAAUAUUACGGGCC | -3.34 ± 0.22 | -2.23 ± 0.27
23 | UGACAGCAAUAUUACGGGGA | -1.25 ± 0.087 | -1.61 ± 0.12
24 | UGACAGCAAUAUUACGGGGC | -2.96 ± 0.13 | -2.56 ± 0.12
25 | UGACAGCAAUAUUACGGGUC | -3.81 ± 0.24 | -2.94 ± 0.2

Row | Sequence | self-splicing fitness (ln) (30 °C) | self-splicing fitness (ln) (37 °C)
26 | UGACAGCAAUAUUACGGUCA | -2.97 ± 0.28 | -0.408 ± 0.17
27 | UGACAGCAAUAUUACGUAAA | -1.01 ± 0.08 | -1.26 ± 0.11
28 | UGACAGCAAUAUUACGUGAG | -0.267 ± 0.028 | -0.365 ± 0.046
29 | UGACAGCAAUAUUACGUUGU | -3.48 ± 0.15 | -2.58 ± 0.2
30 | UGACAGCAAUAUUACGUUUU | -2.76 ± 0.11 | -1.43 ± 0.098
31 | UGAGAGCAAUAUUACGAAGG | -2.94 ± 0.18 | -1.85 ± 0.27
32 | UGAGAGCAAUAUUACGACGU | -2.66 ± 0.19 | -1.78 ± 0.24
33 | UGAGAGCAAUAUUACGAGAA | – | -1.39 ± 0.43
34 | UGAGAGCAAUAUUACGAUUU | -2.34 ± 0.17 | -2.26 ± 0.27
35 | UGAGAGCAAUAUUACGCACU | -3.11 ± 0.32 | -2.02 ± 0.21
36 | UGAGAGCAAUAUUACGCAGC | -3.13 ± 0.23 | -2.16 ± 0.3
37 | UGAGAGCAAUAUUACGCCAG | -3.52 ± 0.42 | -2.41 ± 0.35
38 | UGAGAGCAAUAUUACGCCCA | -1.49 ± 0.26 | –
39 | UGAGAGCAAUAUUACGGACA | -1.66 ± 0.18 | -0.674 ± 0.2
40 | UGAGAGCAAUAUUACGGAGG | -2.31 ± 0.28 | -1.91 ± 0.3
41 | UGAGAGCAAUAUUACGGGCA | -0.578 ± 0.12 | -0.806 ± 0.17
42 | UGAGAGCAAUAUUACGGGGG | -3.4 ± 0.31 | -1.99 ± 0.22
43 | UGAGAGCAAUAUUACGGUAG | -3.74 ± 0.34 | -2.88 ± 0.38
44 | UGAGAGCAAUAUUACGUAGC | – | -2.96 ± 0.4
45 | UGAGAGCAAUAUUACGUCAA | -3.55 ± 0.29 | -2.89 ± 0.3
46 | UGAGAGCAAUAUUACGUCCG | -1.25 ± 0.23 | -1.19 ± 0.42
47 | UGAGAGCAAUAUUACGUCUU | -3.18 ± 0.44 | -1.9 ± 0.28
48 | UGAGAGCAAUAUUACGUGAA | -4.19 ± 0.33 | -2.35 ± 0.27
49 | UGAUAGCAAUAUUACGACAA | – | -2.07 ± 0.35
50 | UGAUAGCAAUAUUACGACGC | – | -3.55 ± 0.29

Row | Sequence | self-splicing fitness (ln) (30 °C) | self-splicing fitness (ln) (37 °C)
51 | UGAUAGCAAUAUUACGACUC | -3.07 ± 0.21 | -1.46 ± 0.18
52 | UGAUAGCAAUAUUACGAGUG | -1.14 ± 0.084 | -0.545 ± 0.12
53 | UGAUAGCAAUAUUACGCAAG | – | -2.3 ± 0.26
54 | UGAUAGCAAUAUUACGCACG | -1.41 ± 0.3 | -0.216 ± 0.19
55 | UGAUAGCAAUAUUACGCGUU | -2.9 ± 0.24 | -2.54 ± 0.39
56 | UGAUAGCAAUAUUACGCUCA | 0.162 ± 0.15 | -0.26 ± 0.15
57 | UGAUAGCAAUAUUACGCUUA | -2.07 ± 0.12 | -0.143 ± 0.12
58 | UGAUAGCAAUAUUACGGACA | -0.237 ± 0.1 | 0.61 ± 0.14
59 | UGAUAGCAAUAUUACGGGCC | -3.78 ± 0.42 | –
60 | UGAUAGCAAUAUUACGGUAU | -3.75 ± 0.22 | -1.92 ± 0.18
61 | UGAUAGCAAUAUUACGGUCU | -0.913 ± 0.12 | -0.257 ± 0.15
62 | UGAUAGCAAUAUUACGGUGU | -3.45 ± 0.18 | -3.09 ± 0.24
63 | UGAUAGCAAUAUUACGUAAA | -3.07 ± 0.16 | -1.64 ± 0.14
64 | UGAUAGCAAUAUUACGUCUU | -1.22 ± 0.092 | -1.33 ± 0.09
65 | UGAUAGCAAUAUUACGUGUA | -2.89 ± 0.18 | -1.38 ± 0.13
66 | UGCAAGCAAUAUUACGAACG | -0.0871 ± 0.083 | 0.961 ± 0.11
67 | UGCAAGCAAUAUUACGAAGA | -1.99 ± 0.27 | -2.3 ± 0.31
68 | UGCAAGCAAUAUUACGACCA | -0.338 ± 0.37 | -0.273 ± 0.3
69 | UGCAAGCAAUAUUACGAUAC | -2.87 ± 0.23 | -2.24 ± 0.37
70 | UGCAAGCAAUAUUACGAUGU | -2.73 ± 0.16 | -2.14 ± 0.19
71 | UGCAAGCAAUAUUACGCACA | -1.38 ± 0.12 | -0.954 ± 0.13
72 | UGCAAGCAAUAUUACGCCGA | -1.38 ± 0.15 | -0.485 ± 0.14
73 | UGCAAGCAAUAUUACGCUGU | -3.03 ± 0.19 | -2.93 ± 0.33
74 | UGCAAGCAAUAUUACGGAAG | -3.38 ± 0.14 | -1.44 ± 0.1
75 | UGCAAGCAAUAUUACGGAUG | -1.25 ± 0.065 | -0.565 ± 0.078

Row | Sequence | self-splicing fitness (ln) (30 °C) | self-splicing fitness (ln) (37 °C)
76 | UGCAAGCAAUAUUACGGCGG | -0.854 ± 0.046 | -0.116 ± 0.068
77 | UGCAAGCAAUAUUACGGGGG | -3.16 ± 0.16 | -2.04 ± 0.15
78 | UGCAAGCAAUAUUACGUGCA | -3.02 ± 0.21 | -3.18 ± 0.35
79 | UGCAAGCAAUAUUACGUGUU | -2.22 ± 0.072 | -1.52 ± 0.098
80 | UGCAAGCAAUAUUACGUUAU | -3.76 ± 0.15 | -1.3 ± 0.1
81 | UGCAAGCAAUAUUACGUUUC | -4.31 ± 0.26 | -3.24 ± 0.17
82 | UGCCAGCAAUAUUACGAACA | -0.458 ± 0.14 | 0.334 ± 0.17
83 | UGCCAGCAAUAUUACGAACC | -3.55 ± 0.43 | -2.29 ± 0.5
84 | UGCCAGCAAUAUUACGAGCA | -1.75 ± 0.26 | -0.682 ± 0.27
85 | UGCCAGCAAUAUUACGAGGC | -4.02 ± 0.42 | -1.44 ± 0.18
86 | UGCCAGCAAUAUUACGAUCG | -0.0468 ± 0.067 | 0.0388 ± 0.079
87 | UGCCAGCAAUAUUACGAUUA | -0.904 ± 0.075 | -0.743 ± 0.089
88 | UGCCAGCAAUAUUACGCAAC | – | -0.966 ± 0.42
89 | UGCCAGCAAUAUUACGCACA | -0.53 ± 0.093 | -0.708 ± 0.15
90 | UGCCAGCAAUAUUACGCAGU | -4.11 ± 0.24 | -2.41 ± 0.2
91 | UGCCAGCAAUAUUACGCGAA | -1.33 ± 0.11 | 0.357 ± 0.11
92 | UGCCAGCAAUAUUACGCGCG | -0.853 ± 0.083 | -0.528 ± 0.1
93 | UGCCAGCAAUAUUACGCGGG | -3.4 ± 0.2 | -2.44 ± 0.22
94 | UGCCAGCAAUAUUACGCGUC | -2.05 ± 0.12 | -1.8 ± 0.15
95 | UGCCAGCAAUAUUACGCUUG | -2.85 ± 0.16 | -2.33 ± 0.19
96 | UGCCAGCAAUAUUACGGAAA | -1.8 ± 0.1 | -0.0875 ± 0.13
97 | UGCCAGCAAUAUUACGGGCG | -3.1 ± 0.16 | -2.73 ± 0.21
